Among the data in patent publication US20240255507A1 are signal intensity values, retold here.

Where two headings read alike, the source gives them in different places.

For assay [1], the target named is BSA (bovine) (UniProt P02769). Put plainly: ELISA, BSA coated as negative control, binder 1 µg/mL, chemiluminescence. (ELISA stands for enzyme-linked immunosorbent assay.)
Assay [2] concerns the target BSA (bovine) (UniProt P02769). Described as above. The source holds these as a separate data set.

BSA (bovine), sequence (P02769 25-607 limits assumed): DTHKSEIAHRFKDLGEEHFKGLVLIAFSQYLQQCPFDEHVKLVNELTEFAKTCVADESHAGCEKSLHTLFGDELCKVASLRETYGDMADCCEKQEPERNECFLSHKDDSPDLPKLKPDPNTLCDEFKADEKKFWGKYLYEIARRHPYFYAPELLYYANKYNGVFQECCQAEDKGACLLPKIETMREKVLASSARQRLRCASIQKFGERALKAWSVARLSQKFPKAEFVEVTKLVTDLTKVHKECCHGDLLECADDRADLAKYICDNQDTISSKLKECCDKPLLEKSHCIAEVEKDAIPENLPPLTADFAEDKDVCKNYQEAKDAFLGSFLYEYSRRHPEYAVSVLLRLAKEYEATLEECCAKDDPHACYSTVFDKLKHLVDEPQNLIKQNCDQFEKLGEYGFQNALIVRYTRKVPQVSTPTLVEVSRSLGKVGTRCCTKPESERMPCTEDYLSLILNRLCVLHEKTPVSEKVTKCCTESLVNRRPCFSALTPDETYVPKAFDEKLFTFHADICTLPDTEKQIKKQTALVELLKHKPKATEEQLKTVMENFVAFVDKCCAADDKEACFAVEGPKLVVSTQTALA
BD23 (antibody), sequence (VH): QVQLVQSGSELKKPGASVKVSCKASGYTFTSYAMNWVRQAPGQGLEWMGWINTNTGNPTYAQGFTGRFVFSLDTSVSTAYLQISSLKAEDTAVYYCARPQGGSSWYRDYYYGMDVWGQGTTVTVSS
BD23 (antibody), sequence (VL): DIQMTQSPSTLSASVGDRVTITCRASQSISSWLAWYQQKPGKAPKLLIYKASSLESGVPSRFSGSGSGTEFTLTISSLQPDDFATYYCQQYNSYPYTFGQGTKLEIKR
CR3022 (antibody), sequence (VH): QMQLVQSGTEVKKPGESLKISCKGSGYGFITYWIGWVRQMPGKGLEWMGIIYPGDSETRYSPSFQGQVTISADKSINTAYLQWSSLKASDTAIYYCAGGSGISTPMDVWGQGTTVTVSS
CR3022 (antibody), sequence (VL): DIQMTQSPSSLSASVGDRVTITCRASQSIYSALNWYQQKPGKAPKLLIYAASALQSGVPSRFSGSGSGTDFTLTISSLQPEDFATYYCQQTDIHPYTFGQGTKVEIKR

Consider BD23 (antibody), for which the signal intensity in the assay with BSA (bovine) [1] turned out to be 13; with BSA (bovine) [2], 83.

On to CR3022 (antibody), for which the figures for the signal intensity with BSA (bovine) [1] and in the assay with BSA (bovine) [2] were 63 and 53, respectively.

For the substance CV30 (antibody), the values for the signal intensity in the assay with BSA (bovine) [1] and in the assay with BSA (bovine) [2] were 73 and 33, respectively.

For REGN10933 (antibody), the results for the signal intensity in the assay with BSA (bovine) [1] and with BSA (bovine) [2] were 53 and 63, respectively.

In the case of REGN10987 (antibody), the signal intensity with BSA (bovine) [1] came out at 43; in the assay with BSA (bovine) [2] it was 63.
